Our source for the Ka and Kd values is patent publication US20080038273A1 (INSTITUT NATIONAL DE LA SANTE ET DE LA RECHERCHE MEDICALE …, published 2008).

This assay deals with T1, Recombinant human CD28 (human, UniProt P10747 19-152, limits assumed).
T1 construct: also called CD28 molecule
In words: BIACORE, recombinant human CD28 immobilized.

From the text: Recombinant human CD28 was immobilized on the biosensor (BIACORE) detector.

B1: CD28.3 scFv/α1-antitrypsin fusion protein (other)
chain: DYKDIVKLQQSGAELVKPGASVRLSCKASGYTFTEYIIHWIKLRSGQGLEWIGWFYPGSNDIQYNAKFKGKATLTADKSSSTVYMELTGLTSEDSAVYFCARRDDFSGYDALPYWGQGTMVTVSSGGGGSGGGGSGGGGSDIQMTQSPASLSVSVGETVTITCRTNENIYSNLAWYQQKQGKSPQLLIYAATHLVEGVPSRFSGSGSGTQYSLKITSLQSEDFGNYYCQHFWGTPCTFGGGTKLEIKRTVAAPSEFNKITPNLAEFAFSLYRQLAHQSNSTNIFFSPVSIATAFAMLSLGTKADTHDEILEGLNFNLTEIPEAQIHEGFQELLRTLNQPDSQLQLTTGNGLFLSEGLKLVDKFLEDVKKLYHSEAFTVNFGDTEEAKKQINDYVEKGTQGKIVDLVKELDRDTVFALVNYIFFKGKWERPFEVKDTEEEDFHVDEVTTVKVPMMKRLGMFNIQHCKKLSSWVLLMKYLGNATAIFFLPDEGKLQHLENELTHDIITKFLENEDRRSASLHLPKLSITGTYDLKSVLGQLGITKVFSNGADLSGVTEEAPLKLSKAVHKAVLTIDEKGTEAAGAMFLEAIPMSIPPEVKFNKPFVFLMIEQNTKSPLFMGKVVNPTQKLEGEFEQKLISEEDLNHHHHH
notes: The pIG6 product would also carry DYKD at the N-terminus; not shown: c-myc marker and polyhistidine marker of the vector (pIG6 or pSECTagB)
For orientation: Kd means the constant that tells how readily two partners part at equilibrium. As to B1, the Ka was 2.86e+09 M⁻¹ and the Kd was 0.349 nM.
